Where two headings read alike, the source gives them in different places.
B1: TP10-P4-(C5)2 (peptide)
peptide 1: HWLKV
peptide 2: […]
modifications: not checked
B2: TAT11-PEG4-(DATC5)2 (peptide)
peptide 1: HWLKV
peptide 2: YGRKKRRQRRR
modifications: not checked

Tests used:
[1] = target: T1, Protein Interacting with C Kinase-1 (PICK1), purified recombinant, Q9EP80; assay: fluorescence polarization competition, tracer 5-FAM-TAT-C5, purified PICK1
[2] = target: T2, fluorescently labelled recombinant rat PICK1 (DY549-SNAP-PICK1) (rat), Q9EP80; assay: SCMS, dissociation of PICK1 pre-bound to TacDAT C24 sheets by peptide
[3] = target: T1, Protein Interacting with C Kinase-1 …; assay: fluorescence polarization competition, tracer 5FAM-TAT-(C5), purified PICK1
[4] = target: T2, fluorescently labelled recombinant rat …

T1 sequence (Q9EP80 whole entry): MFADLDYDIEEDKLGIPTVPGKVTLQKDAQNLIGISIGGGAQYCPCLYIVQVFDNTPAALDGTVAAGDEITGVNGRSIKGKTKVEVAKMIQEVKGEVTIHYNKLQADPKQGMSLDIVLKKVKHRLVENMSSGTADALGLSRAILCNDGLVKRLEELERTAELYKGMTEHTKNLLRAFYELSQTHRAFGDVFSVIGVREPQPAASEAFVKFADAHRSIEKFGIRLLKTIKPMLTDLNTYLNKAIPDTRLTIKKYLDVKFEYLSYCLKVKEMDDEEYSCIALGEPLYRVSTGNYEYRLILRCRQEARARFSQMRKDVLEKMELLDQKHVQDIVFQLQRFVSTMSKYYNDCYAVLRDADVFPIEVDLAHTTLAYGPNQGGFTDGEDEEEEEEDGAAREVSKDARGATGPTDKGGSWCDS
T2 sequence (Q9EP80 whole entry): as above

Row | Binder | Fold affinity change (vs TAT-P4-(C5)2) [1] [fold] | Ki [1] [nM] | IC50 [2] [nM] | Ki [3] [nM] | fold shift in affinity [3] [fold] | IC50 [4] [nM]
1 | B1 | 0.5 | 7.8 |  |  |  | 
2 | B2 | 1 | 4 | 1170 | 6.6 | 301 | 7

Reference: patent US20250215052A1, “INHIBITORS OF PICK1 AND USES THEREOF” (University of Copenhagen, priority 2018, published 2025)
